# What was measured:
# Experiment in all cases: SIMPL ELISA, bait-IN/prey-CIC
# [1] = molecular target: T1, LAT (prey, CIC format) (human) (UniProt O43561)
# T1 sequence (looked up): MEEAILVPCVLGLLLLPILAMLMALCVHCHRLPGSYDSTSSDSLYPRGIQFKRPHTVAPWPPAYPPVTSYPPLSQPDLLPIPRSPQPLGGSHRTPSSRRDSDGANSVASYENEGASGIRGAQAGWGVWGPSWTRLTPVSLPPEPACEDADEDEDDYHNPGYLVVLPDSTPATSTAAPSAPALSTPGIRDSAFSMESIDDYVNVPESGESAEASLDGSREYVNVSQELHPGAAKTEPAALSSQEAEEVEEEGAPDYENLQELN
# [2] = molecular target: PPP3R1 (prey, CIC format) (human) (UniProt P63098)
# [3] = molecular target: T2, RB1 (prey, CIC format) (human) (UniProt P06400)
# T2 sequence (looked up): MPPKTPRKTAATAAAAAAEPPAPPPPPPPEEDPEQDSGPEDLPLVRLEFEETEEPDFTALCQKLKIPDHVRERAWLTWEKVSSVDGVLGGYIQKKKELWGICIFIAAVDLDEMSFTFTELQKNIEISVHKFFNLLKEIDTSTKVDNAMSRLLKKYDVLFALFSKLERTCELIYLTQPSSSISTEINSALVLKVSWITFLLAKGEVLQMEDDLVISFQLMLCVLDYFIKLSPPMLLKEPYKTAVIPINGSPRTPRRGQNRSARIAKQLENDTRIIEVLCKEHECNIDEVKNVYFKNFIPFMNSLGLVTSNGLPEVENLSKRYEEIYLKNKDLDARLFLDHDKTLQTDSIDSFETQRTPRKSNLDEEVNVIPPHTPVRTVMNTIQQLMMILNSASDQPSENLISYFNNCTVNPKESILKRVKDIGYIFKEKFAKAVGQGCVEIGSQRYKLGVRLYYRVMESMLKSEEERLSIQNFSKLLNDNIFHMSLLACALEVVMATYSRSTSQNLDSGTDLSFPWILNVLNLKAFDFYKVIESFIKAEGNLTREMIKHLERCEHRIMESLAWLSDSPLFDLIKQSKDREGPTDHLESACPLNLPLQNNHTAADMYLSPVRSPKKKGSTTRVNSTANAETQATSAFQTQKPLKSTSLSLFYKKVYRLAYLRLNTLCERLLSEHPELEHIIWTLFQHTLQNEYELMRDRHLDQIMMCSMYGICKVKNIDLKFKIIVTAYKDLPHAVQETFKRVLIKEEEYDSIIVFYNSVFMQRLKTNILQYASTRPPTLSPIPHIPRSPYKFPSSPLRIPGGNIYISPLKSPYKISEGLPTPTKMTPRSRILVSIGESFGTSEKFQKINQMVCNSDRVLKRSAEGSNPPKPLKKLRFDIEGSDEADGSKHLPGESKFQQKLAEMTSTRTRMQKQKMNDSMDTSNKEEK
# [4] = molecular target: ZBTB16 (prey, CIC format) (human) (UniProt Q05516)
# [5] = molecular target: DDIT3 (prey, CIC format) (human) (UniProt P35638)
# [6] = molecular target: T3, NRG1 (prey, CIC format) (human) (UniProt Q02297)
# T3 sequence (looked up): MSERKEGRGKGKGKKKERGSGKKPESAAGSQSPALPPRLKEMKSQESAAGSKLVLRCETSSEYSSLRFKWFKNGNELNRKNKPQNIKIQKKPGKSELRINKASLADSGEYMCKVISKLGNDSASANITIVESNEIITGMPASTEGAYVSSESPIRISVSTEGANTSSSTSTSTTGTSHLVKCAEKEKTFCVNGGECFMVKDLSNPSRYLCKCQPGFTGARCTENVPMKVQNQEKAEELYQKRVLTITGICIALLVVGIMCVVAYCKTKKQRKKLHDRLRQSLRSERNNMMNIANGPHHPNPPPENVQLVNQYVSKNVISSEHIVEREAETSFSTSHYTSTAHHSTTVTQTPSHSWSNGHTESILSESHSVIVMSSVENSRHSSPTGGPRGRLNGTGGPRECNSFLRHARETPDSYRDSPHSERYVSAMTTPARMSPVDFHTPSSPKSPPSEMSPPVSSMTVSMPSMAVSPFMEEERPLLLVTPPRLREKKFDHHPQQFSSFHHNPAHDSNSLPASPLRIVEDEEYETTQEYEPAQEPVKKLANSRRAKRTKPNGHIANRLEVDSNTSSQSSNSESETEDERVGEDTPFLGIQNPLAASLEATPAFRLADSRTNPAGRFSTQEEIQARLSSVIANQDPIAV
# [7] = molecular target: PCNA (prey, CIC format) (human) (UniProt P12004)
# [8] = molecular target: MCM3 (prey, CIC format) (human) (UniProt P25205)
# [9] = molecular target: T4, MCM5 (prey, CIC format) (human) (UniProt P33992)
# T4 sequence (looked up): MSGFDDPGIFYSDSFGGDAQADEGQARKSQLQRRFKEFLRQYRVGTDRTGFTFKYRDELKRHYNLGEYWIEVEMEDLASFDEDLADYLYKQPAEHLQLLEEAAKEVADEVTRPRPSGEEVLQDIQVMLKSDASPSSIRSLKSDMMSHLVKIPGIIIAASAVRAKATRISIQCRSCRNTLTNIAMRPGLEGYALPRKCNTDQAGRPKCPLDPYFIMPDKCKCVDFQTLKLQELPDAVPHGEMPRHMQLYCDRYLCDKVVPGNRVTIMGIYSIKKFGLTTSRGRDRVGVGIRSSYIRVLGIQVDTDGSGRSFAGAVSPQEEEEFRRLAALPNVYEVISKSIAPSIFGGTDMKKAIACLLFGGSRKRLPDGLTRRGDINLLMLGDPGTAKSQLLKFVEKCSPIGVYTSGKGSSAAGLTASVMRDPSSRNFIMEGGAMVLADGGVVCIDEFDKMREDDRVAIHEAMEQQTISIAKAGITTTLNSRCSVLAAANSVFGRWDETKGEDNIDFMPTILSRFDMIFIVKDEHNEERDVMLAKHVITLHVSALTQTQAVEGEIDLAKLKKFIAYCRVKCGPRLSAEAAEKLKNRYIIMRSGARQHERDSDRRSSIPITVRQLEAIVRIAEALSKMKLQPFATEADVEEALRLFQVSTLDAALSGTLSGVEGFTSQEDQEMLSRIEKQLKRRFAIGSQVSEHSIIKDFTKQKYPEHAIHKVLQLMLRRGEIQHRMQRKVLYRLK
# [10] = molecular target: T5, S100B (prey, CIC format) (human) (UniProt P04271)
# T5 sequence (looked up): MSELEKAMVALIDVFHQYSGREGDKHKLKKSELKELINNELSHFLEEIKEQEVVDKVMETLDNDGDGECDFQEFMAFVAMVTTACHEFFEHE
# [11] = molecular target: BCL2L1 (prey, CIC format) (human) (UniProt Q07817)
# [12] = molecular target: GRB2 (prey, CIC format) (human) (UniProt P62993)
# [13] = molecular target: CKS1B (prey, CIC format) (human) (UniProt P61024)
# [14] = molecular target: T6, DCP1A (prey, CIC format) (human) (UniProt Q9NPI6)
# T6 sequence (looked up): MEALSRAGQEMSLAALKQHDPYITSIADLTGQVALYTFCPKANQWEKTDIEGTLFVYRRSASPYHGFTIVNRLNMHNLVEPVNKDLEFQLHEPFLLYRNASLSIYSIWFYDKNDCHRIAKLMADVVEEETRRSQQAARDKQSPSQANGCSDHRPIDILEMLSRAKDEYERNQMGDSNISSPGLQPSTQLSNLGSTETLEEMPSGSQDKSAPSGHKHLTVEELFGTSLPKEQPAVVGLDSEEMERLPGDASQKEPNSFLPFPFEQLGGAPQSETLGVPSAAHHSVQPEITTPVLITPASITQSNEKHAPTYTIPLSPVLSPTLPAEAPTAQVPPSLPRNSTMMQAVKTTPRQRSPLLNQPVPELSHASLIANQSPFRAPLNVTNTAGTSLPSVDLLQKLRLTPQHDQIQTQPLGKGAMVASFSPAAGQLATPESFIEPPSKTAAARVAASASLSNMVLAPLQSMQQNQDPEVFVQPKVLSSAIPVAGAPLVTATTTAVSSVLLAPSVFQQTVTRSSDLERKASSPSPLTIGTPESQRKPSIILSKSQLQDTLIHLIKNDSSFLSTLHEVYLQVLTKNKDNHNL
# [15] = molecular target: CD58 (prey, CIC format) (human) (UniProt P19256)
# [16] = molecular target: CGB5 (prey, CIC format) (human) (UniProt P0DN86)
# [17] = molecular target: T7, NCBP2 (prey, CIC format) (human) (UniProt P52298)
# T7 sequence (looked up): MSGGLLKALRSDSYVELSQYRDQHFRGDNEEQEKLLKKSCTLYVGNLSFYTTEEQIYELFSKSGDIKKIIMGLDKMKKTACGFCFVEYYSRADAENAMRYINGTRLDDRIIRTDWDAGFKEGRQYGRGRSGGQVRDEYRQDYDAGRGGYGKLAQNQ
# [18] = molecular target: CASP3 (prey, CIC format) (human) (UniProt P42574)
# [19] = molecular target: T8, BATF (prey, CIC format) (human) (UniProt Q16520)
# T8 sequence (looked up): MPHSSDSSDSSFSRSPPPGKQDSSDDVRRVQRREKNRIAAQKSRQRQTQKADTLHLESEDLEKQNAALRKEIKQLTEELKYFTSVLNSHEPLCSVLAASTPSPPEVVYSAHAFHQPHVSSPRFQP
# [20] = molecular target: T9, PEX11B (prey, CIC format) (human) (UniProt O96011)
# T9 sequence (looked up): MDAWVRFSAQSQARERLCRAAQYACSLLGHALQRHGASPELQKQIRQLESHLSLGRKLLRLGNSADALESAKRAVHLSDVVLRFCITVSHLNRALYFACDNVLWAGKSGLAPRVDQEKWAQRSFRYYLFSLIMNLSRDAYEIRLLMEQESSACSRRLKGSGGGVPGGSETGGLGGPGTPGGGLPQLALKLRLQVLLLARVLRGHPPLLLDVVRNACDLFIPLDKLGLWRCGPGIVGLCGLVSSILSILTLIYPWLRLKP
# [21] = molecular target: PEX16 (prey, CIC format) (human) (UniProt Q9Y5Y5)
# [22] = molecular target: NFE2L1 (prey, CIC format) (human) (UniProt Q14494)
# [23] = molecular target: TNFRSF10B (prey, CIC format) (human) (UniProt O14763)
# [24] = molecular target: GRAP2 (prey, CIC format) (human) (UniProt O75791)
# [25] = molecular target: CCNA1 (prey, CIC format) (human) (UniProt P78396)
# [26] = molecular target: T10, DRAP1 (prey, CIC format) (human) (UniProt Q14919)
# T10 sequence (looked up): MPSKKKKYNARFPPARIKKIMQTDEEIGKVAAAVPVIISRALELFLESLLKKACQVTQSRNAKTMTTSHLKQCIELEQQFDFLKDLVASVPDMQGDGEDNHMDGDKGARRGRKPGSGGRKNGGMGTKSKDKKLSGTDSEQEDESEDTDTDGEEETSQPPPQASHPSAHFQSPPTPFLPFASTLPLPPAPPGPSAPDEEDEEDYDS
# Sequence of PCNA (prey, CIC format) (human) (P12004 whole entry): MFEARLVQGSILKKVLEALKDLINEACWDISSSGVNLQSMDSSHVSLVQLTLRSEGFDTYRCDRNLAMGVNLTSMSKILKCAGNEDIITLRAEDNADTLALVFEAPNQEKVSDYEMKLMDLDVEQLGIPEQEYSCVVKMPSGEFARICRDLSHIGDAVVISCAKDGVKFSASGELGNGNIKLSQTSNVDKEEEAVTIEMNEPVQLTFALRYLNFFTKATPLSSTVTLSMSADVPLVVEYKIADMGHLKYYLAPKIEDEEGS
# Sequence of MCM3 (prey, CIC format) (human) (P25205 whole entry): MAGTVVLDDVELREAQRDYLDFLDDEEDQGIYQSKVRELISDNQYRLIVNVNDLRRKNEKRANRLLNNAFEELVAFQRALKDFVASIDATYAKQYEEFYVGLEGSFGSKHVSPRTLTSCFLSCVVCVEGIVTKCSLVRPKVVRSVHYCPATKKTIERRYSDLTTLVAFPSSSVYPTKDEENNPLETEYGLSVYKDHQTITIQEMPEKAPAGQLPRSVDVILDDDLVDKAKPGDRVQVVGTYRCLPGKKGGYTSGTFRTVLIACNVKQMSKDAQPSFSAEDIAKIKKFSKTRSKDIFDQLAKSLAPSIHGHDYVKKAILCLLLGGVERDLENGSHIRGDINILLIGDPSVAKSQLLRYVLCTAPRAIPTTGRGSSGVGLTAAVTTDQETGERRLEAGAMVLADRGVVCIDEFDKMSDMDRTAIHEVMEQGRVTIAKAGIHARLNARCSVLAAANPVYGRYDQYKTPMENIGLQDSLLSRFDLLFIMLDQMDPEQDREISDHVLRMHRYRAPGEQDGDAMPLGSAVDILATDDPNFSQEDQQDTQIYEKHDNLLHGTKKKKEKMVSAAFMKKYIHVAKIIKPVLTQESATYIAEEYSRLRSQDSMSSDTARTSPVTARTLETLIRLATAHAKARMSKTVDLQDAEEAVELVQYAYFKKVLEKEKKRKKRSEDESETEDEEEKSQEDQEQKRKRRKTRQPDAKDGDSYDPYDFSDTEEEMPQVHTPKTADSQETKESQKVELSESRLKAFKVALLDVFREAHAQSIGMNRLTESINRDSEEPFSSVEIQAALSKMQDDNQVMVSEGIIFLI
# Sequence of S100A1 (bait, IN format) (P23297 whole entry): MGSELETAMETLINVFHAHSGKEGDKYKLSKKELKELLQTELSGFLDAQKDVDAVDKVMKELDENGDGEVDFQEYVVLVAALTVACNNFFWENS
# Sequence of ZBTB16 (prey, CIC format) (human) (Q05516 whole entry): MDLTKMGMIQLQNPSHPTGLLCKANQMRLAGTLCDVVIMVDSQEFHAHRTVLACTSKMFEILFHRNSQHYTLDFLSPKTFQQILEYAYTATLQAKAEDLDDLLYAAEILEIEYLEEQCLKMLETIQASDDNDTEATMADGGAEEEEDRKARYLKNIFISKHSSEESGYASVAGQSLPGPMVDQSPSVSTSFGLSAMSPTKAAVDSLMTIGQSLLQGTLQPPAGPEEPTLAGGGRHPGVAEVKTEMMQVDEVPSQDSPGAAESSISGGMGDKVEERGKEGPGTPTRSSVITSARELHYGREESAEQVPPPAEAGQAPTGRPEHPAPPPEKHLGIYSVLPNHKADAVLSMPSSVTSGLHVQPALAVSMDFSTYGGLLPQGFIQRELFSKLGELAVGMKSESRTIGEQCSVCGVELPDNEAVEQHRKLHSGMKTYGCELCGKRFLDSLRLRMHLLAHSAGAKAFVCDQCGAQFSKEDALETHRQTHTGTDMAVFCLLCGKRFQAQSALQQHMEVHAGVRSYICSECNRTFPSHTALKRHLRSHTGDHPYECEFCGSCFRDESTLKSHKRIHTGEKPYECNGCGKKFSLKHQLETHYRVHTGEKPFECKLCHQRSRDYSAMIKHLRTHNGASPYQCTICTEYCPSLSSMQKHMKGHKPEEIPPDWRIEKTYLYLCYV
# Sequence of PPP3R1 (prey, CIC format) (human) (P63098 whole entry): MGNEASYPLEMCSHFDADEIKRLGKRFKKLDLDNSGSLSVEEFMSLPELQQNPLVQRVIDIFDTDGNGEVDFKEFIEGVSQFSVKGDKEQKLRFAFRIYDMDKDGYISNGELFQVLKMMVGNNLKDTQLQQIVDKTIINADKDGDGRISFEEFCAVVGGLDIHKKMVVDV
# Sequence of GRB2 (prey, CIC format) (human) (P62993 whole entry): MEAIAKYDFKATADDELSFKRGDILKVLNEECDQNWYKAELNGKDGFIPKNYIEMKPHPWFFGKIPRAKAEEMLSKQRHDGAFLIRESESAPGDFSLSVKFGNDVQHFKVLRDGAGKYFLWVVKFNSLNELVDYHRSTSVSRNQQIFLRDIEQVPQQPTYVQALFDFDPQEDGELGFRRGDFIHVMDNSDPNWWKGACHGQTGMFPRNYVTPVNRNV
# Sequence of DDIT3 (prey, CIC format) (human) (P35638 whole entry): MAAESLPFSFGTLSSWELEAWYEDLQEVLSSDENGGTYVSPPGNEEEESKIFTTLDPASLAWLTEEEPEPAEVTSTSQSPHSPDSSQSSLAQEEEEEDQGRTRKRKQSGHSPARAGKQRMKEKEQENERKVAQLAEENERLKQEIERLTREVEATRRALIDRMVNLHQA
# Sequence of HDAC1 (bait, IN format) (Q13547 whole entry): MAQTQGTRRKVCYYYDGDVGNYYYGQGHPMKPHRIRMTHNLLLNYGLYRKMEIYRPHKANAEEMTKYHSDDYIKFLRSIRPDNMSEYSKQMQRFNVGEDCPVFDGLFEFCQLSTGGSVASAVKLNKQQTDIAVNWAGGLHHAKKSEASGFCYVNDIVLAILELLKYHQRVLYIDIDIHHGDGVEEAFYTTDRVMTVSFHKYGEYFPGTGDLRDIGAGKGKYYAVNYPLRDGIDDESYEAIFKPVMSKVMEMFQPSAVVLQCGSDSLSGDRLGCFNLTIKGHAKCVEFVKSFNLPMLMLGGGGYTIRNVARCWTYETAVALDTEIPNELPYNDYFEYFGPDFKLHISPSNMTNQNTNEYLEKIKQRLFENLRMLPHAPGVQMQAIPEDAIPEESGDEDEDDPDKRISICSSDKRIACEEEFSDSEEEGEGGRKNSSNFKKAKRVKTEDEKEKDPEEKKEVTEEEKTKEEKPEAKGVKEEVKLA
# Sequence of NFE2L1 (prey, CIC format) (human) (Q14494 whole entry): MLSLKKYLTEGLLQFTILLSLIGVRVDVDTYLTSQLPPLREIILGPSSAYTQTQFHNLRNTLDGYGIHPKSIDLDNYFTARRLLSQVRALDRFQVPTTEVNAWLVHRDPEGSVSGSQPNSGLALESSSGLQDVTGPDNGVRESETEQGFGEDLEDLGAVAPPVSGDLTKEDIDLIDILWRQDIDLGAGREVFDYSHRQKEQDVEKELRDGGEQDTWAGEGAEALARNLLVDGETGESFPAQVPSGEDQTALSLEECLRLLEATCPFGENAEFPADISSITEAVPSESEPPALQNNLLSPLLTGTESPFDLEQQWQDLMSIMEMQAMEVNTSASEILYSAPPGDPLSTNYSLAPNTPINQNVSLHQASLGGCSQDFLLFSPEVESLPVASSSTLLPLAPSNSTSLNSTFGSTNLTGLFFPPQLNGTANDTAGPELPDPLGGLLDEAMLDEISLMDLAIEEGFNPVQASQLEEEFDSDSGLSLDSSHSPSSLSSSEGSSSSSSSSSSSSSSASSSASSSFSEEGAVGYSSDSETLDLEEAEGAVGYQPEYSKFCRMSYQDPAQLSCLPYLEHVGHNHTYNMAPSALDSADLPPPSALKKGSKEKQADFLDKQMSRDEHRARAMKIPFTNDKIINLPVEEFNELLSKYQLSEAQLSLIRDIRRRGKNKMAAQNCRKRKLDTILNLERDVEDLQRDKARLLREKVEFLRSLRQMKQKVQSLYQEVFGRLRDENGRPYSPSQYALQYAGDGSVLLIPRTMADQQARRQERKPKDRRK
# Sequence of CCNA1 (prey, CIC format) (human) (P78396 whole entry): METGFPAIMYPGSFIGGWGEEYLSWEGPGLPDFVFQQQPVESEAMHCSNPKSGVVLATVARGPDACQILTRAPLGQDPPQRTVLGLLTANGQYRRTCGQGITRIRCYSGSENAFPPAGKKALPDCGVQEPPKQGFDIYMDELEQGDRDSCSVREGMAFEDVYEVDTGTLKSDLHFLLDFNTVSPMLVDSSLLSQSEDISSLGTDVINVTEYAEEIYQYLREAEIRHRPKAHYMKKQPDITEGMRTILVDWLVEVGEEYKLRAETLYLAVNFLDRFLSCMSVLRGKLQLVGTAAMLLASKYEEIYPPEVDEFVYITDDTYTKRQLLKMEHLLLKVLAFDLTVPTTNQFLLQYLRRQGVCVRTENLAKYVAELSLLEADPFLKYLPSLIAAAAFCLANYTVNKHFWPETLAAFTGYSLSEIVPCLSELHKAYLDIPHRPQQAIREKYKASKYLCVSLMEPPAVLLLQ
# Sequence of CKS1B (prey, CIC format) (human) (P61024 whole entry): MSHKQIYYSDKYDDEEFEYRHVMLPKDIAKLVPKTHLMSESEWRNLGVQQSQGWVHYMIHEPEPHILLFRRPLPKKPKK
# Sequence of GRAP2 (prey, CIC format) (human) (O75791 whole entry): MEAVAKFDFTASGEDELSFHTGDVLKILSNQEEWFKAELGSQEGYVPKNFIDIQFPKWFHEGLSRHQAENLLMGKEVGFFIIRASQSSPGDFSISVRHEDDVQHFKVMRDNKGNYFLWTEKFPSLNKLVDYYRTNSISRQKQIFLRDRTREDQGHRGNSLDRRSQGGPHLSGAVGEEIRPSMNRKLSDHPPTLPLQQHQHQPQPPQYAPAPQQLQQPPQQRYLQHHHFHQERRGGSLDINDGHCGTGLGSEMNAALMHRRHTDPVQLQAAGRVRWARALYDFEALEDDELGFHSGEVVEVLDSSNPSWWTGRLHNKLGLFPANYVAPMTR
# Sequence of PEX16 (prey, CIC format) (human) (Q9Y5Y5 whole entry): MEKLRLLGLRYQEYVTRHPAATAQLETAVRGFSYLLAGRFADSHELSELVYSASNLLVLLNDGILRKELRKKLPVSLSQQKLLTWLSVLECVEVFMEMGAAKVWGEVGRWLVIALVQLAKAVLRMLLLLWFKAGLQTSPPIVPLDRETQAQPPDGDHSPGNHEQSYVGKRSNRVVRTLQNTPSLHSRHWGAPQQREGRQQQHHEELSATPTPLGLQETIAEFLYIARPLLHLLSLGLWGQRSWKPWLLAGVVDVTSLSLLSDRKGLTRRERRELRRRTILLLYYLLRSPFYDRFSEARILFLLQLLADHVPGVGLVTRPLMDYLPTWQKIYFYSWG
substance,measurement,setting,value
"HDAC1 (bait, IN format) (from UniProt Q13547 1-482) (enzyme)",PLU mean,[1],0.222
same,PLU mean,[2],0.247
same,PLU mean,[3],0.54
same,PLU mean,[4],0.492
"ERBB3 (bait, IN format) (from UniProt P21860 20-1342) (receptor)",PLU mean,[5],0.28
same,PLU mean,[6],1.22
same,PLU mean,[7],0.0812
"MCM2 (bait, IN format) (from UniProt P49736 1-904)",PLU mean,[8],0.938
same,PLU mean,[9],0.35
same,PLU mean,[10],0.102
"CBLB (bait, IN format) (from UniProt Q13191 1-982)",PLU mean,[11],0.272
same,PLU mean,[12],2.61
"HBA2 (bait, IN format) (from UniProt P69905 1-142)",PLU mean,[13],0.171
"SMAD4 (bait, IN format) (from UniProt Q13485 1-552)",PLU mean,[14],0.398
same,PLU mean,[1],0.215
"CGA (bait, IN format) (from UniProt P01215 25-116) (ligand)",PLU mean,[15],0.131
same,PLU mean,[16],0.435
same,PLU mean,[8],0.0738
same,PLU mean,[17],0.0363
"S100A1 (bait, IN format) (from UniProt P23297 1-94)",PLU mean,[18],0.158
same,PLU mean,[10],0.822
"PEX19 (bait, IN format) (from UniProt P40855 1-299)",PLU mean,[19],0.154
same,PLU mean,[20],1.18
same,PLU mean,[21],1.09
"MAFG (bait, IN format) (from UniProt O15525 1-162)",PLU mean,[22],1.72
same,PLU mean,[20],0.341
same,PLU mean,[23],0.459
"FEN1 (bait, IN format) (from UniProt P39748 1-380) (enzyme)",PLU mean,[24],0.342
same,PLU mean,[7],0.349
"CDKN1B (bait, IN format) (from UniProt P46527 1-198)",PLU mean,[25],0.686
same,PLU mean,[26],0.229

# From patent US20220229068A1, “DETECTION OF PROTEIN TO PROTEIN INTERACTIONS” (THE GOVERNING COUNCIL OF THE UNIVERSITY OF TORONTO, priority 2019, published 2022)
